T1: recombinantly expressed PAP (ACPP-His) (Homo sapiens (Human), UniProt P15309 33-379, limits assumed)
T1 construct: ACPP gene cloned into PTSE-His, expressed in HEK293, purified on Histrap FF; also called serum prostatic acid phosphatase; ACPP antigen; not shown: His tag from vector PTSE-His
T1 sequence: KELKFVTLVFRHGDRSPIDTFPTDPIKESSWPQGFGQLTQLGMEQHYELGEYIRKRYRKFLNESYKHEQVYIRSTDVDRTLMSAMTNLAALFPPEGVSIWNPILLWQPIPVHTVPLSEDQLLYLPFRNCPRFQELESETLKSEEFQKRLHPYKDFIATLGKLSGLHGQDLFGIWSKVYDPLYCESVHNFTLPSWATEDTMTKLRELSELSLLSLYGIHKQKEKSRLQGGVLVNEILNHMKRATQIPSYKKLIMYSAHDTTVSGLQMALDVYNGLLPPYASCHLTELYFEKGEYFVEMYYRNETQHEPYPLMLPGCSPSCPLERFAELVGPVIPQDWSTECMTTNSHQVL

T2: recombinant UPK2 extracellular domain (UPK2-His) (Homo sapiens (Human), UniProt O00526 85-155)
T2 construct: Made in E. coli; not shown: His tag
T2 sequence: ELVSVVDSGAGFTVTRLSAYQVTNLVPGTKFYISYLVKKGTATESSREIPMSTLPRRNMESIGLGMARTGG

B1: ACPP antibody S5D1 (human full antibody) (antibody, V domains shown)
VH: EVQLVQSGAEVKKPGESLKISCKGSGYTFTNYWIGWVRQMPGKGLEWMGRIYPSDSYTNYSPSFQGQVTISADKSISTAYLQWSSLKASDTAMYYCARDLEPTHHYSWGQGTLVTVSS
VL: QSVLTQPASVSGSPGQSVTISCTGTSSDVGGYNYVSWYQQHPGKPPKLMIYEVSKRPSGVPDRFSGSKSGNTASLTISGLQAEDEADYYCSSHTSSNTLIFGGGTKVTVL
notes: Variable regions cloned into vectors pTSEG1n (heavy) and pTSEK (light) and expressed in HEK293 as human full antibody; also called monoclonal antibody S5D1
B2: scFv UPK2-S2B7 (phage display clone) (scFv)
scFv: EVQLQQSGAELMKPGTSVKMSCKAAGYTFTKYWIGWVKQRPGHGLEWIGDIYPGGGYTLFNEKFKGKATLTADTSSSTAYMQLSSLTSEDSAIYYCARGNYWGQGTTLTVSSGGGGSGGGGSGGGGSDVVMTQTPLTLSVTIGQPASISCKSSQSLLDSDGKTYLNWLLQRPGQSPKRLIYLVSKLDSGVPDRFTGSGSGTDFTLKISRVEAEDLGVYYCWQGTHFPHTFGGGTKLEMK
notes: also called clone S2B7
B3: recombinant anti-UPK2 monoclonal antibody S2B7 (murine-human chimeric) (antibody, V domains shown)
VH: EVQLQQSGAELMKPGTSVKMSCKAAGYTFTKYWIGWVKQRPGHGLEWIGDIYPGGGYTLFNEKFKGKATLTADTSSSTAYMQLSSLTSEDSAIYYCARGNYWGQGTTLTVSS
VL: not shown
notes: Murine variable regions, human constant regions (vectors pTSEG1n, pTSEK); also called UPK2-S2B7
B4: recombinant anti-UPK2 monoclonal antibody S2E2 (murine-human chimeric) (antibody, V domains shown)
VH: QVKLQQSGPELVRPGASVKMSCKASGYTFTTYWMHWVKQRPGQGLEWIGMIDPSNSDTRLNQKFKDKATLNVDTSSNTAYMHLSSLTSEDSAVYYCTLGGTEYWGQGATLTVSS
VL: SIVMTQSPATLSVTPGDRVSLSCRASQSIGDYLHWFQQKSHESPRLLIKYASQSISGIPSRFSGSGSGSDFTLIINTMEPEDVGVYYCQNAHTYPYTFGGGTKLEIK
notes: Murine variable regions, human constant regions (vectors pTSEG1n, pTSEK), HEK293; also called UPK2-S2E2
B5: recombinant anti-UPK2 monoclonal antibody S3A4 (murine-human chimeric) (antibody, V domains shown)
VH: EVKLKQSGAELVKPGASVKLSCKASGYTLTSYYIYWVKQRPGQGLEWIGGISPSNGNTYFTEKFKNMATLTVDKSSNTAYMQLSSLTSEDSAVYYCARNYDYDVGFAYWGQGTLVTVSS
VL: DVVMTQTPLSLPVSLGDQASISCRSSQSIVHSNGNTYLEWYLQKPGQSPKLLIYKVSNRFSGVPDRFSGSGSGTDFTLKISRVEAEDLGVYYCFQGSHVPFTFGSGTKLEIK
notes: Murine variable regions, human constant regions (vectors pTSEG1n, pTSEK), HEK293; also called UPK2-S3A4
B6: recombinant anti-UPK2 monoclonal antibody S3C10 (murine-human chimeric) (antibody, V domains shown)
VH: QVQLKESGGGLVQPGESLKLSCESSEFPFPSHDMSWVRKTPEKRLELVAAINSDGGSTYYPDTMERRFIISRDNTKKTLYLQMSSLRSEDTALYYCASLPTFAYWGQGTLVTVSA
VL: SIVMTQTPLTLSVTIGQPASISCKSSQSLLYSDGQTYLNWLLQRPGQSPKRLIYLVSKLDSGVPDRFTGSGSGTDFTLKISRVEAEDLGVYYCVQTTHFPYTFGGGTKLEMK
notes: Murine variable regions, human constant regions (vectors pTSEG1n, pTSEK), HEK293; also called UPK2-S3C10
B7: recombinant anti-UPK2 monoclonal antibody S7F9 (murine-human chimeric) (antibody, V domains shown)
VH: QVQLKQSGPGLVRPGASVTMSCKASGYTFTSNWMHWVKQRPGQGLDWIGMIDPSNSDTRLNQKFKDKATLNVDKSSNTAYMQLSSLTSDDSAVYYCMRGGGDYWGQGTTLTVSS
VL: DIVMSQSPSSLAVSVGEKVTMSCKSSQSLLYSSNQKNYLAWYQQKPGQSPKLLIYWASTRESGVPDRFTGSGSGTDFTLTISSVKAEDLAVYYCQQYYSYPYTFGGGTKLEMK
notes: Murine variable regions, human constant regions (vectors pTSEG1n, pTSEK), HEK293; also called UPK2-S7F9
B8: ACPP antibody S5F2 (human full antibody) (antibody, V domains shown)
VH: QVQLVQSGAEVKKPGSSVKVSCKASEDTFSSYVISWVRQAPGQGLEWMGAFIPLLGRVHYAQEFQGRLTITADESTGTAYMELKGLRSDDTAMYYCARDQGFAGDDAFDIWGQGTMVTVSS
VL: LPVLTQPPSASGTPGQRVTISCSGSSSNIGSNAVDWYQQLPGTAPKLLIYTNNRRPSGVPDRFSGSKSGTSGSLAISGLQFEDEADYYCAAWDDSLSGVIFGGGTKVTVL
notes: Human full antibody from vectors pTSEG1n and pTSEK, HEK293
B9: recombinant anti-UPK2 monoclonal antibody S7F11 (murine-human chimeric) (antibody, V domains shown)
VH: EVQLKESGAELVRSGASVKLSCTASAFNIKDYYMNWMKQRPEQGLEWIGWIDPENGDTKYAPKFQGKATITADTSSSTAYLQLTSLTSEDSAVFYCNVNYKYDWFAYWGQGTLVTVSA
VL: DVVMTQSQKFMSTSVGDRVSVTCKASQNVGTNVAWYQQKPGQSPRALIYSASYRYSGVPDRFTGSGSGTDFTLTISNVQSEDLAEYFCQQYNTYPWTFGGGTKLEIK
notes: the first set is used here; Murine variable regions, human constant regions; also called UPK2-S7F11
B10: recombinant anti-UPK2 monoclonal antibody S3D10 (murine-human chimeric) (antibody, V domains shown)
VH: QVQLQQSGAELVRSGASVKLSCTDSGFNIKDYYMNWVKQRPEQGLEWIGWIDPENGVTQYDPKFQGKATVTADTFSNTAYLQLSSLTSEDTAVYYCNANYKYDWFGYWGQGTLVTVSA
VL: NIVMTQSPSSLSASLGERVSLTCRASQEISGYLSWLQQKPDGTIKRLIYAASTLDSGVPERFSGSRSGSDYSLTISSLESEDFADYYCLQYASYPWTFGGGTKLEMK
notes: Murine variable regions, human constant regions (vectors pTSEG1n, pTSEK), HEK293; also called UPK2-S3D10

Columns and labels:
[1] = molecular target: T1, recombinantly expressed PAP (ACPP-His); assay: BIAcore X-100, antibody captured by anti-human antibody on the chip, recombinant PAP as the mobile phase
Method: (§1) For the affinity assay in FIG. 10, the affinity of two monoclonal antibodies, S5D1 and S5F2, was analyzed using GE's BIAcore X-100 Biomolecular Interaction Analyzer. Affinity analysis was performed using a conventional procedure. The human monoclonal antibody S5D1 or S5F2 was captured using an anti-human antibody coated on a chip. Affinity analysis was then performed using different concentrations of recombinantly expressed PAP as the mobile phase. […] S5D1 has a higher affinity for ACPP antigen.

[2] = molecular target: T1, recombinantly expressed PAP (ACPP-His); assay: SPR, BIAcore X-100; antibody captured by anti-human antibody on chip, recombinant PAP as mobile phase
Method: as §1

[3] = molecular target: T2, recombinant UPK2 extracellular domain …; assay: phage ELISA, purified scFv phage on UPK2-his coated at 0.5 ug/ml, OD490
[4] = molecular target: T2, recombinant UPK2 extracellular domain …; assay: SPR, BIAcore X-100; antibody captured by anti-human antibody on chip, UPK2-His as mobile phase; exponent as printed, koff/kon gives 2.34e-8
Method: (§2) The affinity of the eight monoclonal antibodies was analyzed using GE's BIAcore X-100. Affinity analysis was performed using a conventional procedure by first capturing the human monoclonal antibody with an anti-human antibody coated on a chip, and then using different concentrations of recombinant UPK2-His as the mobile phase for affinity analysis. […] Among them, the binding and dissociation of S7F11/S7G7 were slow, and the binding of S3D10 was too slow. When the three monoclonal antibodies were analyzed by BIAcore X-100 for affinity analysis, the automatic fitting of KD was poor, and the data was for reference only.

[5] = molecular target: T2, recombinant UPK2 extracellular domain …; assay: ELISA, antibody dilution series on UPK2-his coated at 0.5 ug/ml, OD490
Method: The ability of recombinant whole antibodies to bind antigen UPK2-His was analyzed using a classical ELISA method.

[6] = molecular target: T2, recombinant UPK2 extracellular domain …; assay: SPR, BIAcore X-100; antibody captured by anti-human antibody on chip, UPK2-His as mobile phase
Method: as §2

[7] = molecular target: T1, recombinantly expressed PAP (ACPP-His); assay: SPR, BIAcore X-100; antibody captured by anti-human antibody on chip, recombinant PAP as mobile phase; speculated value, read as weaker than 100 nM because the next sentence says S5D1 has the higher affinity
Method: as §1

[8] = molecular target: T2, recombinant UPK2 extracellular domain …; assay: SPR, BIAcore X-100; antibody captured, UPK2-His as mobile phase; remark Kd overrun, fit poor, for reference only
Method: as §2

[9] = molecular target: T2, recombinant UPK2 extracellular domain …; assay: SPR, BIAcore X-100; antibody captured, UPK2-His as mobile phase; remark U-value = 15, fit poor, for reference only
Method: as §2

| Binder | EC50 (read off the curve) [5] [nM] | Kd [6] [nM] | also measured |
| --- | --- | --- | --- |
| B1 |  |  | Kd [1]: 9.02 nM; Kd [2]: ~9 nM |
| B2 |  |  | EC50 (read off the curve) [3]: ~3e+10 cfu/ml |
| B3 | ~0.5 |  | Kd [4]: 23.4 nM |
| B4 | ~0.5 | 2.82 |  |
| B5 | ~0.6 | 27.1 |  |
| B6 | ~0.5 | 0.911 |  |
| B7 | ~0.5 | 16.7 |  |
| B8 |  |  | Kd [7]: > 100 nM |
| B9 |  |  | Kd [8]: 2.32 nM |
| B10 |  |  | Kd [9]: 4060 nM |
